The text below walks through data of US20180362668A1 (JIANGSU ALPHAMAB BIOPHARMACEUTICALS, published 2018).

The data set deals with the molecule itself. The experiment in a line: non-reducing SDS-PAGE densitometry of Protein A-purified co-transfection product; chain A:chain B vectors 1:1. The text has this:
The cotransfection ratio of recombinant expression vector of the chain A to that of the chain B was 1:1.

B1: ScFv-Fc fusion protein chain A with Y349C + T366W + K409A + L368E (Fc fusion)
chain: EVQLLESGGGVVQPGRSLRLSCIASGFTFSSYPMTWVRQAPGKGLEWVASISYDGSYKYKADSMKGRLTISRDNSKNTLYLEMNSLTAEDTAVYYCARTAFFNAYDFWGQGTLVTVSSASTKGPSVGGGGSGGGGSEIVMTQSPATLSVSPGERATLSCRASQSVRSNLAWYQQKPGQAPRLLIYAASTRATGIPARFSGSGSGTEFTLTISSLQSEDFAVYYCQQYNEWFRTSGQGTKVEIKRDKTHTCPPCPAPELLGGPSVFLFPPKPKDTLMISRTPEVTCVVVDVSHENPEVKFNWYVDGVEVHNAKTKPREEQYNSTYRVVSVLTVLHQDWLNGKEYKCKVSNKALPAPIEKTISKAKGQPREPQVCTLPPSRDELTKNQVSLWCEVKGFYPSDIAVEWESNGQPENNYKTTPPVLDSDGSFFLYSALTVDKSRWQQGNVFSCSVMHEALHNHYTQKSLSLSPGK
notes: Positions are EU index; also called combination 9 chain A
As to B1, the “ScFv-Fc homodimer (%)” value was determined as 39%.

B2: ScFv-Fc fusion protein chain A with Y349C + T366W + F405K + Q347R (Fc fusion)
chain: EVQLLESGGGVVQPGRSLRLSCIASGFTFSSYPMTWVRQAPGKGLEWVASISYDGSYKYKADSMKGRLTISRDNSKNTLYLEMNSLTAEDTAVYYCARTAFFNAYDFWGQGTLVTVSSASTKGPSVGGGGSGGGGSEIVMTQSPATLSVSPGERATLSCRASQSVRSNLAWYQQKPGQAPRLLIYAASTRATGIPARFSGSGSGTEFTLTISSLQSEDFAVYYCQQYNEWFRTSGQGTKVEIKRDKTHTCPPCPAPELLGGPSVFLFPPKPKDTLMISRTPEVTCVVVDVSHENPEVKFNWYVDGVEVHNAKTKPREEQYNSTYRVVSVLTVLHQDWLNGKEYKCKVSNKALPAPIEKTISKAKGQPREPRVCTLPPSRDELTKNQVSLWCLVKGFYPSDIAVEWESNGQPENNYKTTPPVLDSDGSFKLYSKLTVDKSRWQQGNVFSCSVMHEALHNHYTQKSLSLSPGK
notes: Positions are EU index; also called combination 6 chain A
Consider B2, for which the “ScFv-Fc homodimer (%)” value stood at 14%.

B3: ScFv-Fc fusion protein chain A with Y349C + T366W + K409A + K360E + Q347E (Fc fusion)
chain: EVQLLESGGGVVQPGRSLRLSCIASGFTFSSYPMTWVRQAPGKGLEWVASISYDGSYKYKADSMKGRLTISRDNSKNTLYLEMNSLTAEDTAVYYCARTAFFNAYDFWGQGTLVTVSSASTKGPSVGGGGSGGGGSEIVMTQSPATLSVSPGERATLSCRASQSVRSNLAWYQQKPGQAPRLLIYAASTRATGIPARFSGSGSGTEFTLTISSLQSEDFAVYYCQQYNEWFRTSGQGTKVEIKRDKTHTCPPCPAPELLGGPSVFLFPPKPKDTLMISRTPEVTCVVVDVSHENPEVKFNWYVDGVEVHNAKTKPREEQYNSTYRVVSVLTVLHQDWLNGKEYKCKVSNKALPAPIEKTISKAKGQPREPEVCTLPPSRDELTENQVSLWCLVKGFYPSDIAVEWESNGQPENNYKTTPPVLDSDGSFFLYSALTVDKSRWQQGNVFSCSVMHEALHNHYTQKSLSLSPGK
notes: Positions are EU index; also called combination 7 chain A
With B3, the “ScFv-Fc homodimer (%)” value turned out to be 24%.

B4: ScFv-Fc fusion protein chain A with Y349C + T366W + F405K + K360E + Q347E (Fc fusion)
chain: EVQLLESGGGVVQPGRSLRLSCIASGFTFSSYPMTWVRQAPGKGLEWVASISYDGSYKYKADSMKGRLTISRDNSKNTLYLEMNSLTAEDTAVYYCARTAFFNAYDFWGQGTLVTVSSASTKGPSVGGGGSGGGGSEIVMTQSPATLSVSPGERATLSCRASQSVRSNLAWYQQKPGQAPRLLIYAASTRATGIPARFSGSGSGTEFTLTISSLQSEDFAVYYCQQYNEWFRTSGQGTKVEIKRDKTHTCPPCPAPELLGGPSVFLFPPKPKDTLMISRTPEVTCVVVDVSHENPEVKFNWYVDGVEVHNAKTKPREEQYNSTYRVVSVLTVLHQDWLNGKEYKCKVSNKALPAPIEKTISKAKGQPREPEVCTLPPSRDELTENQVSLWCLVKGFYPSDIAVEWESNGQPENNYKTTPPVLDSDGSFKLYSKLTVDKSRWQQGNVFSCSVMHEALHNHYTQKSLSLSPGK
notes: Positions are EU index; also called combination 5 chain A
In the case of B4, the “ScFv-Fc homodimer (%)” value came to 14%.

B5: Fc protein chain B with D356C + T366S + L368A + Y407V + K360E + Q347E (other)
chain: DKTHTCPPCPAPELLGGPSVFLFPPKPKDTLMISRTPEVTCVVVDVSHEDPEVKFNWYVDGVEVHNAKTKPREEQYNSTYRVVSVLTVLHQDWLNGKEYKCKVSNKALPAPIEKTISKAKGQPREPEVYTLPPSRCELTENQVSLSCAVKGFYPSDIAVEWESNGQPENNYKTTPPVLDSDGSFFLVSKLTVDKSRWQQGNVFSCSVMHEALHNHYTQKSLSLSPGK
notes: also called combination 6 chain B
In the case of B5, the “Proportion of Fc homodimer (%)” value was determined as 24%.
